Source: patent US20060014712A1 (CeMines, Inc., published 2006)
Like-named read-outs stand apart in the source and are kept apart here.

Assays:
Test in all cases: cell-based or functional assay
SOX10 [1] = target: T1, SOX10 (Homo sapiens (Human), UniProt P56693)
STAT3 [2] = target: T2, STAT3 (Homo sapiens (Human), UniProt P40763)
MITF [3] = target: T3, MITF (Homo sapiens (Human), UniProt O75030-9)
SOX10 [4] = target: T1, SOX10; remark: listed apart in the source
MITF [5] = target: T3, MITF; remark: listed apart in the source
STAT3 [6] = target: T2, STAT3; remark: listed apart in the source

Binder | Apoptosis 7 d/% in SK-MEL-28 (SOX10 [1]) | Apoptosis 7 d/% in SK-MEL-28 (SOX10 [4]) | Apoptosis 7 d/% in SK-MEL-28 (MITF [5]) | Apoptosis 7 d/% in SK-MEL-28 (STAT3 [6]) | further results
RPKKRKVRRRQLMLEPYALDMSRIRVLSESLGLATQSG [Scr-int1] | 0% |  |  |  | Apoptosis 7 d/% in SK-MEL-28 (STAT3 [2]): 0%; Apoptosis 7 d/% in SK-MEL-28 (MITF [3]): 0%
TTGGSSPQGLEAKRPKKRKVRRRVKRPMNAFMVWAQAARRKLADQY [SOX10-int1M] |  | 32% |  |  | 
TTGGSSPQGLEAKRPKKRKVRRRFNINDRIKELGTLIPKSNDPDMRWN [MITF-int1M] |  |  | 20% |  | 
STAT3-int1M (peptide) peptide: TTGGSSPQGLEAKRPKKRKVRRRKMQQLEQMLTALDQMRRSIVSELAGLLS |  |  |  | 12% | 
Scr-int1M (peptide) peptide: TTGGSSPQGLEAKRPKKRKVRRRQLMLEPYALDMSRIRVLSESLGLATQSG |  | 0% | 0% | 0% | 
RPKKRKVRRRVKRPMNAFMVWAQAARRKLADQY [SOX10-int1] | 55% |  |  |  | 
